The results in this text go back to US8722856B2, “Anti-MUC1 antibody” (National University Corporation Hokkaido University, priority 2008, dated 2014).

Some results are limits rather than exact numbers.

For assay [1], the system named is biotin-labeled T-47D culture supernatant. Kind of assay: Affinity of antibody, Biacore, sensor chip SA. Format: binding, human. The following applies: biotin-labeled T-47D culture supernatant solid-phased. As to the method:
In addition, a human breast cancer cultured cell strain T-47D (ATCC Number HTB-133) was cultured on a Dulbecco's modified Eagle medium (DMEM; manufacture by Invitrogen), the supernatant was concentrated with Amicon ultra-100 (manufactured by MILLIPORE), and substituted with a 20 mM HEPES buffer (pH 7.6) containing 0.15 M NaCl. Sulfo-NHS-Biotin (manufactured by PIERCE) was added to 200 μl of the T-47D culture supernatant, followed by reaction on ice for 2 hours. Thereafter, substitution with a 20 mM Tris buffer (pH 7.6) containing 0.15 M NaCl was performed with a PD-10 column (manufactured by GE Healthcare) to obtain a biotin-labeled T-47D culture supernatant.

For assay [2], the target named is T1, Biotin-Tn(DT*R)-100 (Compound No. 21) (Homo sapiens, UniProt P15941).
T1 construct: made in house; host or cells: chemical solid-phase synthesis
T1 sequence (P15941 136-235): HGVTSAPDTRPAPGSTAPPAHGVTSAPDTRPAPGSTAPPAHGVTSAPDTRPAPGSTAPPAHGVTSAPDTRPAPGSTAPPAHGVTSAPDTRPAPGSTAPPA
Kind of assay: Affinity of antibody, Biacore T100, sensor chip SA. Format: binding. The following applies: Biotin-Tn(DT*R)-100 solid-phased. An excerpt:
Biotin-Tn(DT*R)-100 (Compound No. 21) was solid-phased on a sensor chip SA (manufactured by GE Healthcare), and a dissociation constant of each of the following MUC1 antibody, 1B2, PankoMab (manufactured by GLYCOPOPE) currently at a pre-clinical stage, VU-2G7 (manufactured by MONOSAN) which is an antibody obtained by glycopeptide immunization, O.N.272 (manufactured by SantaCruz), C595 (manufactured by Acris), B416 (manufactured by GeneTex), and VU-3C6 (manufactured by Exalpha Biologicals) was analyzed using Biacore T100, and the result was as shown in the following Table 3.

Assay [3] has as its system human breast cancer cell strain T-47D. Kind of assay: Binding of antibody to cancer cell with FACS. The format is cell-based. The protocol:
Whether the MUC1 protein expressed on a surface of a cancer cell membrane and the 1B2 antibody bound thereto was investigated by FACS. A human breast cancer cell strain T-47D (ATCC, HTB-133) and a human mammary gland epithelial cell 184A1 (ATCC, CRL-8798) which had been trypsinized with Trypsin (manufactured by Invitrogen) were washed once with a FACS buffer (PBS containing 5% FCS, 0.05% sodium azide), and suspended in 100 μl of a FACS buffer containing 10 μg/ml 1B2 antibody and the reaction was allowed to proceed at room temperature for 2 hours. The resultant reaction product was washed with a FACS buffer two times, and suspended in 200 μl of FITC-Goat Anti-Mouse IgG (manufactured by ZYMED), and the reaction was allowed to proceed at room temperature for 1 hour. After washing with a FACS buffer two times, analysis was performed by FACSAria (manufactured by BD). As a result, in T-47D, the 1B2 antibody greatly shifted the fluorescent signal of FACS (about 300-fold) as compared with a control mouse IgG2a antibody (manufactured by SIGMA-ALDRICH), while in 184A, fluorescent shift by 1B2 was scarcely seen (about 2-fold).

For assay [4], the target named is T2, cancer-associated structure and normal tissue-associated structure of MUC1 (Homo sapiens, UniProt P15941).
T2 construct: Synthesis of MUC1 Tn20-mer Glycopeptide; made in house; host or cells: chemical solid-phase synthesis, partly with enzymatic sugar extension
T2 sequence (P15941 136-155): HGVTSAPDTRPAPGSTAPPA
As to the kind of experiment: Sugar chain specificity, overall statements from competitive ELISA. The format is binding. As to the method: Such specificity can be expressed by a difference in cross reactivity. The cross reactivity is obtained by a calculation equation of (IC50 for cancer-associated structure 2,3ST/IC50 for sugar chain structure to be compared)×100(%). As used herein, inclusion of specificity refers to a difference of 2 fold or more.
Ten days after cell fusion, screening of a specific antibody-producing cell was performed. ELISA was used in screening is as follows. To each well of a 384-well microtiter plate (manufactured by Nunc) 35 μl of a Tris buffer (50 mM Tris-HCl, pH 7.5) containing 0.35 μg of an anti-mouse IgG antibody (manufactured by Shibayagi Co., Ltd.) was added to immobilize the antibody at 4° C. for 16 hours. After these wells were washed with 90 μl of a washing solution (physiological saline containing 0.01% Tween 20) once, 200 μl of BLOCK ACE (manufactured by Dainippon Sumitomo Pharma Co., Ltd.) was added, and this was allowed to stand at room temperature for 2 hours for blocking (an anti-mouse IgG antibody solid-phased plate). After each well was washed with 90 μl of a washing solution once, 10 μl of a hybridoma culture supernatant, 10 μl of a buffer A (50 mM Tris buffer containing 0.5% bovine serum albumin, 0.01% Tween 80, 0.05% Proclin 150, and 0.15 M. NaCl, pH 7.4), and 10 μl of a buffer A containing 0.01 ng of Biotin-2,3-ST(DT*R)-20 (Compound No. 16 of Table 1) and 2 ng of Streptavidin-HRP (manufactured by PIERCE) were added to perform a reaction at 4° C. for 16 hours. Then, after each well was washed with 90 μl of a washing solution three times, 25 μl of TMB+-Substrate-Chromogen (manufactured by DAKO) was added to develop a color at room temperature for 30 minutes, 25 μl of 0.05 M sulfuric acid was added to stop the reaction, and absorbance was measured at 450 nm. […] Using a mouse monoclonal antibody isotyping ELISA kit (manufactured by BD Bioscience), a subclass of the antibody was determined and, as a result, an isotype of 1B2 was IgG2a.
Fifteen (15) μl of a buffer A containing a MUC1 antibody was added to an anti-mouse IgG antibody solid-phased plate and the reaction was allowed to proceed at room temperature for 3 hours. […] Then, after each well was washed with 90 μl of a washing solution three times, 15 μl of TMB+-Substrate-Chromogen (manufactured by DAKO) was added to develop a color at room temperature for 30 minutes, 15 μl of 0.05 M sulfuric acid was added to stop the reaction, and absorbance at 450 nm was measured.

In assay [5] the test system is human breast cancer tissue. Kind of assay: Immunological tissue staining. The settings on record: formalin-fixed, paraffin-embedded breast cancer tissue. An excerpt: Immunological tissue staining of the 1B2 antibody to a piece of a human breast cancer tissue and a normal tissue around a breast cancer (BioCahin) which had been formalin-fixed and paraffin-embedded was implemented using the Vectastain elite ABC kit (manufactured by Vector Laboratories) and DAB (manufactured by Roche) according to the attached manual.

Setting [6] is: read-out: dissociation constant KD.

B1: 1B2: mouse monoclonal anti-MUC1 antibody, isotype IgG2a, clone from immunization with 2,3-ST(DT*R)-20 conjugated to BSA (antibody, V domains shown)
VH: MEWIWIFLFILSGTAGVQSQVQLQQSGAELARPGASVKLSCKASGYTFTNYGLSWVKQRTGQGLEWIGENHPGSGIIYHNEKFRGKATLTADKSSSTAYVQLSSLTSEDSAVYFCARSSGTRGFAYWGQGTLVTVSA
VL: MKLPVRLLVLMFWIPASSSDVLMTQTPLSLPVSLGDQASISCRSSQSIVHSNGNTYLEWYLQKPGQSPKLLIYKVSNRFSGVPDRFSGSGSGTDFTLKISRVEAEDLGVYYCFQGSHGPWTFGGGTKLEIKRA
modifications: Antibody 1B2 VH sequence; Antibody 1B2 VL sequence
Regarding B1, in assay [1], the Kd1 is 0.0012 s⁻¹ and the ka1 is 470000 M⁻¹ s⁻¹. Besides, the Kd in assay [1] (setting [6]) worked out at 2.6 nM. Moreover, in assay [2], the Kd1 is 0.00015 s⁻¹ and the ka1 turned out to be 410000 M⁻¹ s⁻¹. In addition, the Kd in assay [2] (setting [6]) stood at 0.37 nM. In addition, in assay [3], the “reaction with breast cancer cell (FACS)” value is listed as “strongly reacts”. The “shift of fluorescent signal of FACS as compared with control mouse IgG2a antibody” value in assay [3] (10 μg/ml antibody) is “about 300 fold”. In addition, in assay [4], the “IC50 for a cancer-associated structure” value is reported as ≤ 100 nM; the “cross reactivity for the normal tissue-associated structure, letting 2,3ST to be 100%” value is recorded as ≤ 1%; the “specificity for a cancer-associated structure as compared with that for a normal tissue-associated structure” value is given as “at least 100 fold”. In addition, the “cross reactivity with a sugar chain structure highly expressed in normal cells” value in assay [4] (2,3ST6L(DT*R)-20, 2,3-ST6SL(DT*R)-20) is “low cross reactivity”. Also, in assay [4] (T(DT*R)-20, 2,3-ST(DT*R)-20, Tn(DT*R)-20), the “affinity for a sugar chain structure highly expressed in cancer cells” value is “high affinity”. In assay [5], the stained image result was “recognized”.
